This assay concerns the target human complement Factor H (human) (UniProt P08603). Nature of the assay: SPR; Biacore X100 Plus; human FH captured by immobilised anti-FH mAb (Q254) on CM5; refolded NspA as analyte, five 3.16-fold dilutions from 10 µM, single-cycle kinetics; 10 mM HEPES, 150 mM NaCl, 3 mM EDTA, 0.005% P-20, pH 7.4; 1:1 model; apparent KD.

Data on 1 substance can be found in publication PMC11895441.

Chain of UniProt P08603 (P08603 19-1231): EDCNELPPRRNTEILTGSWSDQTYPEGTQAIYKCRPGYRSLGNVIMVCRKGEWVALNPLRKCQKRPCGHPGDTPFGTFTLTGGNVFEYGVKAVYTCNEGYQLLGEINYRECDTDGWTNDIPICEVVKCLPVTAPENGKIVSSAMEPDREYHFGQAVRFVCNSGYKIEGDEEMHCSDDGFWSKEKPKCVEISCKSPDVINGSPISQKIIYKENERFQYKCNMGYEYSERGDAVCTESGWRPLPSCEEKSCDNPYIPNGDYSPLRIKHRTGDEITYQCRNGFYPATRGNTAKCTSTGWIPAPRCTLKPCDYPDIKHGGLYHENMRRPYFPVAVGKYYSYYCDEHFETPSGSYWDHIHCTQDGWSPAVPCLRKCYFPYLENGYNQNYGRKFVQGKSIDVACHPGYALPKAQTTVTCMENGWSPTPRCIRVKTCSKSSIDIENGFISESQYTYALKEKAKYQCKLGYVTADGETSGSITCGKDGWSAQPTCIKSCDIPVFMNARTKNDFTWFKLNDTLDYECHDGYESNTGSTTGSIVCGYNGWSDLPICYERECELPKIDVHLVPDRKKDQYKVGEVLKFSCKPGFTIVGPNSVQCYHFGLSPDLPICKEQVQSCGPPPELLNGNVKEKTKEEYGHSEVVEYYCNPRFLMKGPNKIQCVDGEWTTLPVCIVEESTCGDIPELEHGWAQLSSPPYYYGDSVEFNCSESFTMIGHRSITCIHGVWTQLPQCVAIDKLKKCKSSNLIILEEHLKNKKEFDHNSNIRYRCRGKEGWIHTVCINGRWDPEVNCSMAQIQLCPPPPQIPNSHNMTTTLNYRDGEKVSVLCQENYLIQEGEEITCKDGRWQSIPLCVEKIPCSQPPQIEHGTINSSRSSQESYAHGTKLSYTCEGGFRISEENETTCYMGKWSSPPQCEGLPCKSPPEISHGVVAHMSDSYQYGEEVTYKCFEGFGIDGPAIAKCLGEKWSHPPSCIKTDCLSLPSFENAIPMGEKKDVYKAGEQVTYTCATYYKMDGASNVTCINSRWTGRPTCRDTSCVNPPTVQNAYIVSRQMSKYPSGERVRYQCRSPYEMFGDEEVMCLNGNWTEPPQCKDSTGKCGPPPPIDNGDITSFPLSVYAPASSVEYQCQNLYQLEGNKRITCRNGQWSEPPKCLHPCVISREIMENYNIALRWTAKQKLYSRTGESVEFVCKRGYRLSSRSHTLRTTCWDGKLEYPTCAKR

In general, koff refers to the first-order rate constant of dissociation. One may read the kon as a measure of how fast the partners come together. On to “purified, refolded NspA from N. meningitidis strain 8047, wild type, without signal sequence (natural protein)”, for which the Kd came out at 24.8 nM, the koff amounted to 0.000608 s⁻¹ and the kon came to 25100 M⁻¹ s⁻¹.
